Source: IntAct's records for PubMed 20924357

Columns and labels:
bglg_ecoli bglG [1] = target: bglg_ecoli bglG (UniProt P11989)
bglg_ecoli bglG [2] = target: bglg_ecoli bglG (UniProt P11989); remark: listed apart in the source
bglg_ecoli bglG [3] = target: bglg_ecoli bglG (UniProt P11989); remark: listed apart in the source

Sequence of bglg_ecoli bglG (P11989 whole entry): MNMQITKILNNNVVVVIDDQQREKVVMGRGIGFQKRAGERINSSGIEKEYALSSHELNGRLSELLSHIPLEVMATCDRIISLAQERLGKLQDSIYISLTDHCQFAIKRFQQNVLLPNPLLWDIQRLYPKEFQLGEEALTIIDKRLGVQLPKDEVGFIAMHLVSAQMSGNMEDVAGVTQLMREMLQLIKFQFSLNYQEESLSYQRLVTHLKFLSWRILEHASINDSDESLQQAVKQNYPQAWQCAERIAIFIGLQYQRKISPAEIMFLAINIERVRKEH

| Substance | effect of a mutation on the interaction (bglg_ecoli bglG [1]) | effect of a mutation on the interaction (bglg_ecoli bglG [2]) | effect of a mutation on the interaction (bglg_ecoli bglG [3]) |
| --- | --- | --- | --- |
| Phosphocarrier protein HPr (Escherichia coli (strain K12)), P0AA04 H15A | increasing interaction | – | – |
| Phosphoenolpyruvate-protein phosphotransferase (Escherichia coli (strain K12)), P08839 H189A | – | decreasing interaction | disrupting interaction |
